Laboratory results as given in PMC5454376, “Molecular mechanism of Gαi activation by non-GPCR proteins with a Gα-Binding and Activating motif” (Nature Communications, 2017).

B1: GIV-CT: His-tagged human GIV residues 1,660–1,870 (protein)
chain: SETLESRHHKIKTGSPGSEVVTLQQFLEESNKLTSVQIKSSSQENLLDEVMKSLSVSSDFLGKDKPVSCGLARSVSGKTPGDFYDRRTTKPEFLRPGPRKTEDTYFISSAGKPTPGTQGKIKLVKESSLSRQSKDSNPYATLPRASSVISTAEGTTRRTSIHDFLTKDSRLPISVDSPPAAADSNTTAASNVDKVQESRNSKSRSREQQSS
modifications: left off: His tag, N-terminal, kept
B2: A2bR: human GPCR A2b receptor expressed in yeast (protein, UniProt P29275 1-332, looked up)
Adenosine receptor A2b: MLLETQDALYVALELVIAALSVAGNVLVCAAVGTANTLQTPTNYFLVSLAAADVAVGLFAIPFAITISLGFCTDFYGCLFLACFVLVLTQSSIFSLLAVAVDRYLAICVPLRYKSLVTGTRARGVIAVLWVLAFGIGLTPFLGWNSKDSATNNCTEPWDGTTNESCCLVKCLFENVVPMSYMVYFNFFGCVLPPLLIMLVIYIKIFLVACRQLQRTELMDHSRTTLQREIHAAKSLAMIVGIFALCWLPVHAVNCVTLFQPAQGKNKPKWAMNMAILLSHANSVVNPIVYAYRNRDFRYTFHKIISRYLLCQADVKSGNGQAGVQPALGVGL

Columns and labels:
Gαi3-GDP = assay: NMR perturbation of Gαi3-GDP backbone amide signals; assay type: binding, human; details: 30 °C, pH 7.0, TROSY
Protocol: Full-length human Gαi3 (UNIPROT entry P08754) cloned in a pET24d(+) plasmid (a generous gift from Ichio Shimada, University of Tokyo) was used to purify the protein used in NMR experiments. For this, protein expression was induced in BL21 Rosetta (Life Technologies) cell cultures with 1 mM IPTG for 16 h at 23 °C in a modified M9 minimal medium containing 1 g l^−1 15N-NH4Cl, 2 g l^−1 2H-^13C-glucose and 1 g l^−1 of ^2H-^13C-^15N Celtone base powder in ^2H2O with 30 mg l^−1 kanamycin and 34 mg l^−1 chloramphenicol. The pelleted cells were lysed by sonication in 50 mM Tris, 200 mM NaCl, 100 mM KCl and 1 mM DTT at pH 8.0, and the supernatant was loaded on a Ni^2+-loaded His-Trap FF column. […]
All NMR data were measured on a Bruker Avance III 800 MHz (18.8 T) spectrometer equipped with a cryogenically cooled triple resonance z-gradient probe, processed with Topspin (Bruker) and analysed with Sparky. […] Gαi3 spectra were recorded at 30 °C on ^2H-^13C-^15N–Gαi3 samples with a threefold molar excess of GDP in 10 mM HEPES (pH 7.0) with 10 mM MgCl2, 5 mm DTT, 0.01% NaN3 and 5% ^2H2O. […] The assignment of Gαi3 resonances in the presence of a fivefold molar excess of GIV fragment 1,671–1,696 was achieved from the joint analysis of an HNCO and ^1H–^15N TROSY spectra recorded along a titration (at molar ratios 1:0, 1:0.2,1:0.5, 1:1, 1:2 and 1:5). […]

[1] = Circular dichroism and thermal denaturation of GIV-CT; assay type: physicochemical
Protocol: Circular dichroism measurements were performed on a Jasco J-810 spectropolarimeter (JASCO, Tokyo, Japan). The circular dichroism spectrum was recorded on a GIV-CT protein sample 8.4 μM in PBS (pH 7.0) with 0.2 mM DTT in a 0.2 cm path length quartz cuvette at 25 °C. The thermal denaturation curve from 5 to 95 °C was recorded on the same protein sample and cuvette by increasing temperature at a rate of 1 °C min^−1 and measuring the change in ellipticity at 222 nm.

[2] = test system: Gpa1(1–41)-human Gαi3 (36–354) in S. cerevisiae; assay: G-protein activation in yeast (Fus3 phosphorylation); assay type: cell-based; details: strain MMY11, ppFus3 immunoblot
Source text: G-protein activation assay in yeast
The native G-protein-dependent pheromone response pathway is similarly modified in both strains: the pheromone-activated GPCR (Ste2 or Ste3), endogenous Gα-subunit (Gpa1) and the cell cycle arrest-inducing protein far1 are deleted. In MMY11, the G-protein inhibitor Sst2 is also deleted. Both strains were transformed with a centromeric plasmid (CEN TRP) encoding a chimeric yeast Gpa1(1–41)-human Gαi3 (36–354) protein under the control of the endogenous Gpa1 promoter[68] (courtesy of Mary Cismowski, Nationwide Children's Hospital) using the lithium acetate method. […] Individual colonies were inoculated into 3 ml of SDGalactose-Trp-Ura and incubated overnight at 30 °C to induce the expression of the proteins of interest under the control of the galactose-inducible promoter of pYES2. This starting culture was used to inoculate 20 ml of SDGalactose-Trp-Ura at 0.3 OD600. Exponentially growing cells (∼0.7–0.8 OD600, 4–5 h) were pelleted to prepare samples for immunoblotting (see below). […]
Yeast protein samples for immunoblotting were prepared by acid lysis and precipitation followed by neutralization and solubilization. […] Proteins (∼15–20 μl per lane) were separated by SDS–PAGE, blocked in PBS supplemented with 5% BSA and analysed by sequential incubation with primary and secondary antibodies. […]

Molecule	fraction of assigned peaks with significant chemical shift perturbations (Gαi3-GDP) [%]	overall decrease in signal intensity (median) (Gαi3-GDP; twofold molar excess GIV-CT) [fold]	thermal denaturation ([1]; 5 to 95 °C, 1 °C min^−1, ellipticity at 222 nm, PBS pH 7.0)	secondary structure by circular dichroism ([1]; […] in PBS pH 7.0, 0.2 mM DTT, 25 °C)	activation of Gαi3 WT and Gαi3 N256E [2]	activation of Gαi3 ΔC9 [2]
B1	< 20	~3	no cooperative transition	little, if any, secondary structure		
B2					equally	completely blunted
